In paper PMC9482650, “Quantitative fragmentomics allow affinity mapping of interactomes” (Nature Communications, 2022):
Where a chain is given by its changes, count along the chain named.

T1: ARHGAP21, Q5T5U3
T1 sequence (Q5T5U3 45-169, limits assumed, looked up): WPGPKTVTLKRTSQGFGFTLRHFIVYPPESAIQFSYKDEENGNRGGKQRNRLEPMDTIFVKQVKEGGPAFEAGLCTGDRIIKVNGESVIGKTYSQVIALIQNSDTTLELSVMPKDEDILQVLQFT

T2: CARD11, Q9BXL7
T2 sequence (Q9BXL7 662-765, limits assumed, looked up): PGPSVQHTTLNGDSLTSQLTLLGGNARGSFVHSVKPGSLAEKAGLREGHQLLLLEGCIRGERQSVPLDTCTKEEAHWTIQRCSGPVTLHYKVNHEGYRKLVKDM

T3: FRMPD1, Q5SYB0
T3 sequence (Q5SYB0 52-145, limits assumed, looked up): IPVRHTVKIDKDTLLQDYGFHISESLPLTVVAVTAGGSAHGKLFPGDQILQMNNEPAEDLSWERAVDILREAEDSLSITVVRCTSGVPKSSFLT

T4: GRIP1_4, Q9Y3R0
T4 sequence (Q9Y3R0 467-571, limits assumed, looked up): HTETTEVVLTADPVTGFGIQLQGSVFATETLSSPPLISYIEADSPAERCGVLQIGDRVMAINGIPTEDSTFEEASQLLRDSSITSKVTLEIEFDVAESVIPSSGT

T5: HTRA4, P83105
T5 sequence (P83105 378-476, limits assumed, looked up): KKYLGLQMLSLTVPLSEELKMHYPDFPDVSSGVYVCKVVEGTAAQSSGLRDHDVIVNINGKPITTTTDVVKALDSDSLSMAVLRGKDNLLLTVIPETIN

T6: LIN7B, Q9HAP6
T6 sequence (Q9HAP6 88-185, limits assumed, looked up): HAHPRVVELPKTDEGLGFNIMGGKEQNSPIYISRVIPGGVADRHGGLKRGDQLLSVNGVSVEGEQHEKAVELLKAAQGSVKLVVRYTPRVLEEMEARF

T7: LIN7C, Q9NUP9
T7 sequence (Q9NUP9 88-185, limits assumed, looked up): T6 sequence (Q9HAP6 88-185, limits assumed, looked up) with A2S, D13E, V35I, V40I, Q65H, S79K, R89K, A96S

T8: LNX2_3, Q8N448
T8 sequence (Q8N448 463-564, limits assumed, looked up): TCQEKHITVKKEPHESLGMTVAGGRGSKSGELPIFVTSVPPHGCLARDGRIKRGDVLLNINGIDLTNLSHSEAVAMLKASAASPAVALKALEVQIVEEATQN

T9: MPP2, Q14168
T9 sequence (Q14168 180-250, limits assumed, looked up): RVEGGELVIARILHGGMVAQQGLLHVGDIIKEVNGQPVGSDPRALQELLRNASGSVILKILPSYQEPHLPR

T10: PDZD2_2, O15018
T10 sequence (O15018 329-429, limits assumed, looked up): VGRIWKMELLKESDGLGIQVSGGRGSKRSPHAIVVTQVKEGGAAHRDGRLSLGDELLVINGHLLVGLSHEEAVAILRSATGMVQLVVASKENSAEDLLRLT

T11: PDZD7_3, Q9H5P4
T11 sequence (Q9H5P4 857-944, limits assumed, looked up): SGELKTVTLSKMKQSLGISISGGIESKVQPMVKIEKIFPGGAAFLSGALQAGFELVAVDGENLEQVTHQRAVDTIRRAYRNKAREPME


Tests used:
Test in all cases: holdup assay
Set-up in all cases: key: below the threshold = too weak to quantify, mostly under pKd 3.1 to 4
Conditions in all cases: plain residues with an end cap or a label only (N-terminal biotin on a linker: ado-ado)
AHNAK1, Q09666 = molecular target: AHNAK1, Q09666
ARHGAP21, Q5T5U3 = molecular target: T1, ARHGAP21, Q5T5U3
CARD11, Q9BXL7 = molecular target: T2, CARD11, Q9BXL7
DLG4_2, P78352 = molecular target: DLG4_2, P78352
FRMPD1, Q5SYB0 = molecular target: T3, FRMPD1, Q5SYB0
FRMPD2_1, Q68DX3 = molecular target: FRMPD2_1, Q68DX3
FRMPD2_2, Q68DX3 = molecular target: FRMPD2_2, Q68DX3
GRID2IP_1, A4D2P6 = molecular target: GRID2IP_1, A4D2P6
GRIP1_4, Q9Y3R0 = molecular target: T4, GRIP1_4, Q9Y3R0
HTRA4, P83105 = molecular target: T5, HTRA4, P83105
IL16_4, Q14005 = molecular target: IL16_4, Q14005
Inadl_1, Q8NI35 = molecular target: Inadl_1, Q8NI35
Inadl_3, Q8NI35 = molecular target: Inadl_3, Q8NI35
Inadl_6, Q8NI35 = molecular target: Inadl_6, Q8NI35
Inadl_8, Q8NI35 = molecular target: Inadl_8, Q8NI35
Inadl_9, Q8NI35 = molecular target: Inadl_9, Q8NI35
LIN7B, Q9HAP6 = molecular target: T6, LIN7B, Q9HAP6
LIN7C, Q9NUP9 = molecular target: T7, LIN7C, Q9NUP9
LNX1_3, Q8TBB1 = molecular target: LNX1_3, Q8TBB1
LNX2_3, Q8N448 = molecular target: T8, LNX2_3, Q8N448
MAGI2_5, Q86UL8 = molecular target: MAGI2_5, Q86UL8
MAST2, Q6P0Q8 = molecular target: MAST2, Q6P0Q8
MPP2, Q14168 = molecular target: T9, MPP2, Q14168
NHERF4_1, Q86UT5-2 = molecular target: NHERF4_1, Q86UT5-2
NHERF4_4, Q86UT5 = molecular target: NHERF4_4, Q86UT5
PDZD2_2, O15018 = molecular target: T10, PDZD2_2, O15018
PDZD7_3, Q9H5P4 = molecular target: T11, PDZD7_3, Q9H5P4

Chain of AHNAK1, Q09666 (Q09666 4-100): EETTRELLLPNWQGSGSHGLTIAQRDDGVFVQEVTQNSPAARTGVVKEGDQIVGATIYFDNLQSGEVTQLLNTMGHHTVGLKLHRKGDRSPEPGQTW
Chain of NHERF4_1, Q86UT5-2 (Q86UT5 other isoform, or with tags, fused parts or gaps): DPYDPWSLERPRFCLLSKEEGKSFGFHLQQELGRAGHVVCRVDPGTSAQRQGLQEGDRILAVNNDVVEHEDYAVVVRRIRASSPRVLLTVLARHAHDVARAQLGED
Chain of MAST2, Q6P0Q8 (Q6P0Q8 1099-1202): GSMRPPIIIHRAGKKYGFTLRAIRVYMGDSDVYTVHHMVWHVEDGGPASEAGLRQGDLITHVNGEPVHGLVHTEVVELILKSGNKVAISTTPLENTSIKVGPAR
Chain of IL16_4, Q14005 (Q14005 1229-1329): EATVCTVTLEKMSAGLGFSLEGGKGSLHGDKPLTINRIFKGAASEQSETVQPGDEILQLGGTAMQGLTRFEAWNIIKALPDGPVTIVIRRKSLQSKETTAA
Chain of GRID2IP_1, A4D2P6 (A4D2P6 1-87): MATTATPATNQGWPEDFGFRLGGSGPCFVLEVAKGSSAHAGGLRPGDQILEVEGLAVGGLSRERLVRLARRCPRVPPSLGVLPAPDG
Chain of FRMPD2_2, Q68DX3 (Q68DX3 944-1038): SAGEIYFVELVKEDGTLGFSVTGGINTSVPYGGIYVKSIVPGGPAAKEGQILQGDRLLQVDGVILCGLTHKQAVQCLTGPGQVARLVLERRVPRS
Chain of DLG4_2, P78352 (P78352 155-259): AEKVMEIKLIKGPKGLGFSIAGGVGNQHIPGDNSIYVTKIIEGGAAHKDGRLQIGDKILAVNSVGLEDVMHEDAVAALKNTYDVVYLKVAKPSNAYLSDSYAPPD
Chain of Inadl_9, Q8NI35 (Q8NI35 1530-1615): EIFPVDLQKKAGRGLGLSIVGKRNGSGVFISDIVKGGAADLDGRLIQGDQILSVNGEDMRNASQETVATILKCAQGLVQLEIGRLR
Chain of Inadl_8, Q8NI35 (Q8NI35 1425-1530): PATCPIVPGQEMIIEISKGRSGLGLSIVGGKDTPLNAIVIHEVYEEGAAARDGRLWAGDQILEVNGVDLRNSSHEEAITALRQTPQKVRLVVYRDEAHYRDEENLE
Chain of NHERF4_4, Q86UT5 (Q86UT5 464-550): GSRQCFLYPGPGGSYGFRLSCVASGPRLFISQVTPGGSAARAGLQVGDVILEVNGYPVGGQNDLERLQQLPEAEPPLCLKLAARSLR
Chain of Inadl_1, Q8NI35 (Q8NI35 113-229): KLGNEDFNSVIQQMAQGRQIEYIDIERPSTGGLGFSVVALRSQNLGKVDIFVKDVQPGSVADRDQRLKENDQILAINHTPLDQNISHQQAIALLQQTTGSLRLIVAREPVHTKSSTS
Chain of MAGI2_5, Q86UL8 (Q86UL8 915-1017): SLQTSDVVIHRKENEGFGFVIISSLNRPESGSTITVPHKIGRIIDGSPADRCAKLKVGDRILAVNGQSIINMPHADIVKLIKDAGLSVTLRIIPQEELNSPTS
Chain of LNX1_3, Q8TBB1 (Q8TBB1 500-596): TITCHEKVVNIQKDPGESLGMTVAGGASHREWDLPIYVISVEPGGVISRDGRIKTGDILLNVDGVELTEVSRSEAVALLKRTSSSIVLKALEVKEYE
Chain of Inadl_3, Q8NI35 (Q8NI35 359-469): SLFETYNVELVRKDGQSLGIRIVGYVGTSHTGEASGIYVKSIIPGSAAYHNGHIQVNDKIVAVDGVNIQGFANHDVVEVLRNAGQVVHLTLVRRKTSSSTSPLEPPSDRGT
Chain of FRMPD2_1, Q68DX3 (Q68DX3 770-861): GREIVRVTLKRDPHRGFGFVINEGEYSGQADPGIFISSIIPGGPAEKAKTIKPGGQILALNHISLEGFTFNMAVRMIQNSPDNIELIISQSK
Chain of Inadl_6, Q8NI35 (Q8NI35 1058-1167): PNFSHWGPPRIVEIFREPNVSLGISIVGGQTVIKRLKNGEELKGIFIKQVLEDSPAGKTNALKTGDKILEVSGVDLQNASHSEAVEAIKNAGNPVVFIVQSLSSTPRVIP

| Binder | pKd (AHNAK1, Q09666) | pKd (ARHGAP21, Q5T5U3) | pKd (CARD11, Q9BXL7) | pKd (DLG4_2, P78352) | pKd (FRMPD1, Q5SYB0) | pKd (FRMPD2_1, Q68DX3) | pKd (FRMPD2_2, Q68DX3) | pKd (GRID2IP_1, A4D2P6) | pKd (GRIP1_4, Q9Y3R0) | pKd (HTRA4, P83105) | pKd (IL16_4, Q14005) | pKd (Inadl_1, Q8NI35) | pKd (Inadl_3, Q8NI35) | pKd (Inadl_6, Q8NI35) | pKd (Inadl_8, Q8NI35) | pKd (Inadl_9, Q8NI35) | pKd (LIN7B, Q9HAP6) | pKd (LIN7C, Q9NUP9) | pKd (LNX1_3, Q8TBB1) | pKd (LNX2_3, Q8N448) | also measured |
| --- | --- | --- | --- | --- | --- | --- | --- | --- | --- | --- | --- | --- | --- | --- | --- | --- | --- | --- | --- | --- | --- |
| KKTPVSRSHL [SLC22A3, O75751] | below the threshold | 3.97 | below the threshold | below the threshold | below the threshold | below the threshold | below the threshold | below the threshold | below the threshold | 3.81 | below the threshold | below the threshold | below the threshold | below the threshold | below the threshold | below the threshold | below the threshold | below the threshold | below the threshold | below the threshold | pKd (MAGI2_5, Q86UL8): below the threshold; pKd (MAST2, Q6P0Q8): 4.69; pKd (MPP2, Q14168): below the threshold; pKd (NHERF4_1, Q86UT5-2): 3.94; pKd (NHERF4_4, Q86UT5): below the threshold; pKd (PDZD2_2, O15018): below the threshold; pKd (PDZD7_3, Q9H5P4): 3.91 |
| LPPPESESKV [KCNJ9, Q92806] | below the threshold | below the threshold | 3.73 | 3.67 | below the threshold | below the threshold | 3.56 | below the threshold | below the threshold | below the threshold | below the threshold | below the threshold | below the threshold | below the threshold | below the threshold | below the threshold | 3.77 | below the threshold | below the threshold | below the threshold | pKd (MAGI2_5, Q86UL8): below the threshold; pKd (MAST2, Q6P0Q8): 4.9; pKd (MPP2, Q14168): below the threshold; pKd (NHERF4_1, Q86UT5-2): below the threshold; pKd (NHERF4_4, Q86UT5): below the threshold; pKd (PDZD2_2, O15018): 4.81; pKd (PDZD7_3, Q9H5P4): below the threshold |
| NNMAFETTHF [SLC5A12, Q1EHB4] | below the threshold | 3.94 | below the threshold | below the threshold | below the threshold | below the threshold | below the threshold | below the threshold | below the threshold | below the threshold | below the threshold | below the threshold | below the threshold | below the threshold | below the threshold | below the threshold | 3.62 | below the threshold | below the threshold | below the threshold | pKd (MAGI2_5, Q86UL8): 4.1; pKd (MAST2, Q6P0Q8): 5.56; pKd (MPP2, Q14168): below the threshold; pKd (NHERF4_1, Q86UT5-2): 4.35; pKd (NHERF4_4, Q86UT5): below the threshold; pKd (PDZD2_2, O15018): below the threshold; pKd (PDZD7_3, Q9H5P4): below the threshold |
| SSSVNVSSNL [CXCR1, P25024] | below the threshold | 3.77 | below the threshold | below the threshold | below the threshold | below the threshold | below the threshold | below the threshold | below the threshold | 3.89 | below the threshold | below the threshold | below the threshold | below the threshold | below the threshold | below the threshold | 3.58 | below the threshold | below the threshold | below the threshold | pKd (MAGI2_5, Q86UL8): below the threshold; pKd (MAST2, Q6P0Q8): 5.13; pKd (MPP2, Q14168): below the threshold; pKd (NHERF4_1, Q86UT5-2): 3.74; pKd (NHERF4_4, Q86UT5): below the threshold; pKd (PDZD2_2, O15018): 3.69; pKd (PDZD7_3, Q9H5P4): below the threshold |
| LLQEEWETVM [PTH1R, Q03431] | below the threshold | 4.11 | below the threshold | below the threshold | below the threshold | below the threshold | below the threshold | below the threshold | below the threshold | below the threshold | 3.93 | below the threshold | 4.7 | 4.12 | below the threshold | below the threshold | below the threshold | below the threshold | below the threshold | below the threshold | pKd (MAGI2_5, Q86UL8): 4.4; pKd (MAST2, Q6P0Q8): 5.68; pKd (MPP2, Q14168): below the threshold; pKd (NHERF4_1, Q86UT5-2): 3.56; pKd (NHERF4_4, Q86UT5): below the threshold; pKd (PDZD2_2, O15018): below the threshold; pKd (PDZD7_3, Q9H5P4): 4.45 |
